In the RNAGym collection of RNA variant scans (doi:10.1073/pnas.2313332121):
Variants at the floor of the assay were thinned out.

B1: TPR 5TU (parent)
chain: GGAUCUUCUCGAUCUAACAAAAAAGACAAAUCUGCCACAAAGCUUGAGAGCAUCUUCGGAUGCAGAGGCGGCAGCCUUCGGUGGCGCGAUAGCGCCAACGUUCUCAACUAUGACACGCAAAACGCGUGCUCCGUUGAAUGGAGUUUAUCAUG

Variants of: B1
Assay: polymerase ribozyme fitness, log enrichment relative to wild type (log ratio); higher = more active; in vitro selection for triplet polymerase activity
Summary of the method: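 Fitness compares each genotype's enrichment to that of the wild type on a logarithmic scale, averaging replicates with inverse-variance weights. The logarithm is base 2. Enrichment came from Illumina sequencing of input and output libraries after one triplicate round of in vitro selection, which included frozen incubation at −7 °C, of PCR-built, transcribed mutant libraries of each subunit of a heterodimeric triplet polymerase ribozyme. Only genotypes with ≥10 input reads and ≥1 read per output were kept.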

Question: For C99U A107G, which “polymerase ribozyme fitness (log ratio)” value is on record?
Answer: The value was -4.16.

Question: With G94C A150U as the variant, how does the “polymerase ribozyme fitness (log ratio)” value read?
Answer: Its value is 1.09.

Question: With C103A A107U U134A as the variant, how does the “polymerase ribozyme fitness (log ratio)” value read?
Answer: Its value is no more than -4.2.

Question: Which “polymerase ribozyme fitness (log ratio)” value does the source give for C108U G133U here?
Answer: The value was -3.96.

Question: Which “polymerase ribozyme fitness (log ratio)” value does the source give for C103G G143U here?
Answer: The value was no more than -4.2.

Question: With C103A U146C as the variant, how does the “polymerase ribozyme fitness (log ratio)” value read?
Answer: The value was -1.49.

Question: With U101G A120G as the variant, how does the “polymerase ribozyme fitness (log ratio)” value read?
Answer: Its value is -0.0391.

Question: For C93U C95G A113G A137U A138U, which “polymerase ribozyme fitness (log ratio)” value is on record?
Answer: The value was no more than -4.2.

Question: For A98G U101C G143U C149U, which “polymerase ribozyme fitness (log ratio)” value is on record?
Answer: Its value is no more than -4.2.

Question: For A97G U101G, which “polymerase ribozyme fitness (log ratio)” value is on record?
Answer: The value was 0.358.

Question: With C108G G143C A147C as the variant, how does the “polymerase ribozyme fitness (log ratio)” value read?
Answer: The value was no more than -4.2.

Question: With C95U C116G U135A as the variant, how does the “polymerase ribozyme fitness (log ratio)” value read?
Answer: The value was -2.67.

Question: With C99G U146G as the variant, how does the “polymerase ribozyme fitness (log ratio)” value read?
Answer: The value was -1.32.

Question: Which “polymerase ribozyme fitness (log ratio)” value does the source give for C95U C132A here?
Answer: Its value is -2.32.

Question: With C93U C114U as the variant, how does the “polymerase ribozyme fitness (log ratio)” value read?
Answer: Its value is -2.54.

Question: With U102C U134G G136U A138U as the variant, how does the “polymerase ribozyme fitness (log ratio)” value read?
Answer: The value was no more than -4.2.

Question: With C96G G112A as the variant, how does the “polymerase ribozyme fitness (log ratio)” value read?
Answer: The value was -4.07.

Question: For C105U A106C, which “polymerase ribozyme fitness (log ratio)” value is on record?
Answer: Its value is 0.388.

Question: With A98U C105U as the variant, how does the “polymerase ribozyme fitness (log ratio)” value read?
Answer: Its value is 0.54.

Question: For C108U C114U, which “polymerase ribozyme fitness (log ratio)” value is on record?
Answer: Its value is -4.06.

Question: For C96U A97U, which “polymerase ribozyme fitness (log ratio)” value is on record?
Answer: Its value is -0.832.

Question: Which “polymerase ribozyme fitness (log ratio)” value does the source give for C96U A97G here?
Answer: The value was -0.535.

Question: With G94U G100U as the variant, how does the “polymerase ribozyme fitness (log ratio)” value read?
Answer: The value was -3.85.

Question: With C96U U102C C125U as the variant, how does the “polymerase ribozyme fitness (log ratio)” value read?
Answer: The value was -2.51.

Question: With U104C C116G as the variant, how does the “polymerase ribozyme fitness (log ratio)” value read?
Answer: Its value is 0.144.

Question: With G94A A120C as the variant, how does the “polymerase ribozyme fitness (log ratio)” value read?
Answer: Its value is -0.523.

Question: With C96U C125A as the variant, how does the “polymerase ribozyme fitness (log ratio)” value read?
Answer: The value was -0.0844.

Question: For C96U C125U, which “polymerase ribozyme fitness (log ratio)” value is on record?
Answer: Its value is -0.382.

Question: For G94A A106C G136A, which “polymerase ribozyme fitness (log ratio)” value is on record?
Answer: The value was -0.404.

Question: Which “polymerase ribozyme fitness (log ratio)” value does the source give for C93G C132G here?
Answer: The value was no more than -4.2.

Question: For C96A U134C A138G G141C, which “polymerase ribozyme fitness (log ratio)” value is on record?
Answer: Its value is -4.07.

Question: Which “polymerase ribozyme fitness (log ratio)” value does the source give for A107U U135C here?
Answer: Its value is -4.04.

Question: For G94U A98U C99G A147G, which “polymerase ribozyme fitness (log ratio)” value is on record?
Answer: Its value is -3.16.

Question: For C108U G136U, which “polymerase ribozyme fitness (log ratio)” value is on record?
Answer: The value was -3.41.

Question: For C93G C114U, which “polymerase ribozyme fitness (log ratio)” value is on record?
Answer: Its value is -3.97.

Question: With U101A A115U G141A as the variant, how does the “polymerase ribozyme fitness (log ratio)” value read?
Answer: The value was -2.17.

Question: For C105A U135C, which “polymerase ribozyme fitness (log ratio)” value is on record?
Answer: The value was -2.39.

Question: For A98U C105A A119G A121C, which “polymerase ribozyme fitness (log ratio)” value is on record?
Answer: Its value is -0.491.

Question: For C93G C96A C105U C116U, which “polymerase ribozyme fitness (log ratio)” value is on record?
Answer: Its value is -4.17.

Question: For U102G C116G, which “polymerase ribozyme fitness (log ratio)” value is on record?
Answer: The value was -1.67.

Question: With C93U A121C G140C as the variant, how does the “polymerase ribozyme fitness (log ratio)” value read?
Answer: Its value is no more than -4.2.

Question: For C99U U144A, which “polymerase ribozyme fitness (log ratio)” value is on record?
Answer: Its value is -1.02.

Question: For C96U A121U U139A, which “polymerase ribozyme fitness (log ratio)” value is on record?
Answer: The value was no more than -4.2.

Question: With C103G as the variant, how does the “polymerase ribozyme fitness (log ratio)” value read?
Answer: The value was -1.4.

Question: Which “polymerase ribozyme fitness (log ratio)” value does the source give for C103U here?
Answer: Its value is -0.357.

Question: Which “polymerase ribozyme fitness (log ratio)” value does the source give for C103A here?
Answer: The value was -1.23.

Question: For C93U C116U G141A, which “polymerase ribozyme fitness (log ratio)” value is on record?
Answer: Its value is -0.0845.

Question: Which “polymerase ribozyme fitness (log ratio)” value does the source give for G94A A97G here?
Answer: Its value is -2.19.

Question: With C95U C99A as the variant, how does the “polymerase ribozyme fitness (log ratio)” value read?
Answer: The value was -0.15.

Question: For C95U C99U, which “polymerase ribozyme fitness (log ratio)” value is on record?
Answer: Its value is -1.09.

Question: For G94U C108U, which “polymerase ribozyme fitness (log ratio)” value is on record?
Answer: The value was -3.54.

Question: For C96A A97G, which “polymerase ribozyme fitness (log ratio)” value is on record?
Answer: The value was -0.635.

Question: For C93G U144A, which “polymerase ribozyme fitness (log ratio)” value is on record?
Answer: The value was -2.68.

Question: For C93U A119U G141A, which “polymerase ribozyme fitness (log ratio)” value is on record?
Answer: Its value is -0.528.

Question: For A97C A119G, which “polymerase ribozyme fitness (log ratio)” value is on record?
Answer: The value was 0.72.

Question: For U111A G124A U135C, which “polymerase ribozyme fitness (log ratio)” value is on record?
Answer: Its value is -3.76.

Question: With C93U C99A G128C as the variant, how does the “polymerase ribozyme fitness (log ratio)” value read?
Answer: The value was no more than -4.2.

Question: Which “polymerase ribozyme fitness (log ratio)” value does the source give for U104C G124U C125A G143U here?
Answer: Its value is -3.85.

Question: For C96G U139G G140U C149A, which “polymerase ribozyme fitness (log ratio)” value is on record?
Answer: Its value is no more than -4.2.

Question: For C96G A115G C123A A147U, which “polymerase ribozyme fitness (log ratio)” value is on record?
Answer: Its value is -0.404.

Question: Which “polymerase ribozyme fitness (log ratio)” value does the source give for U102G A120U here?
Answer: The value was -1.94.

Question: With C103A A107C A142C as the variant, how does the “polymerase ribozyme fitness (log ratio)” value read?
Answer: The value was no more than -4.2.

Question: For U109A U151A, which “polymerase ribozyme fitness (log ratio)” value is on record?
Answer: Its value is no more than -4.2.

Question: With C105U A138U as the variant, how does the “polymerase ribozyme fitness (log ratio)” value read?
Answer: Its value is -2.82.

Question: For C96U A115C, which “polymerase ribozyme fitness (log ratio)” value is on record?
Answer: The value was -2.68.

Question: Which “polymerase ribozyme fitness (log ratio)” value does the source give for A106G A120U A121G A122G G143C here?
Answer: The value was -2.43.

Question: Which “polymerase ribozyme fitness (log ratio)” value does the source give for C93U A122U here?
Answer: The value was -0.696.

Question: Which “polymerase ribozyme fitness (log ratio)” value does the source give for C96G A120G here?
Answer: Its value is -2.

Question: With C96G A120C as the variant, how does the “polymerase ribozyme fitness (log ratio)” value read?
Answer: The value was 0.168.

Question: With U109G A110C as the variant, how does the “polymerase ribozyme fitness (log ratio)” value read?
Answer: Its value is no more than -4.2.

Question: Which “polymerase ribozyme fitness (log ratio)” value does the source give for C114A G140A U148G here?
Answer: The value was no more than -4.2.

Question: Which “polymerase ribozyme fitness (log ratio)” value does the source give for C105U U135A here?
Answer: Its value is 0.0587.

Question: Which “polymerase ribozyme fitness (log ratio)” value does the source give for C93U A98G C103A here?
Answer: The value was -2.73.

Question: Which “polymerase ribozyme fitness (log ratio)” value does the source give for C93G C125G A150U here?
Answer: The value was -4.06.

Question: With C96U C114U A150U as the variant, how does the “polymerase ribozyme fitness (log ratio)” value read?
Answer: The value was -3.94.

Question: With C99G C116U as the variant, how does the “polymerase ribozyme fitness (log ratio)” value read?
Answer: Its value is -0.76.

Question: Which “polymerase ribozyme fitness (log ratio)” value does the source give for A110G C149G here?
Answer: The value was -3.83.

Question: Which “polymerase ribozyme fitness (log ratio)” value does the source give for G94C U151A here?
Answer: The value was -3.85.

Question: With U102G U127C as the variant, how does the “polymerase ribozyme fitness (log ratio)” value read?
Answer: Its value is -4.17.

Question: For C95U C118U, which “polymerase ribozyme fitness (log ratio)” value is on record?
Answer: Its value is -1.09.

Question: Which “polymerase ribozyme fitness (log ratio)” value does the source give for G94A U127G U146G here?
Answer: Its value is -3.33.

Question: For C99U G141A, which “polymerase ribozyme fitness (log ratio)” value is on record?
Answer: The value was -0.231.

Question: For A98U A147C, which “polymerase ribozyme fitness (log ratio)” value is on record?
Answer: Its value is 0.168.

Question: For G94A U101G U148A, which “polymerase ribozyme fitness (log ratio)” value is on record?
Answer: The value was -4.03.
